Assay results as given in patent US20220133849A1.

Biological target: Maxi-K channel of rat bladder detrusor smooth muscle (endogenous) (rat) (UniProt Q62976)
Assay: cell-based or functional assay

UniProt Q62976, sequence (Q62976 whole entry): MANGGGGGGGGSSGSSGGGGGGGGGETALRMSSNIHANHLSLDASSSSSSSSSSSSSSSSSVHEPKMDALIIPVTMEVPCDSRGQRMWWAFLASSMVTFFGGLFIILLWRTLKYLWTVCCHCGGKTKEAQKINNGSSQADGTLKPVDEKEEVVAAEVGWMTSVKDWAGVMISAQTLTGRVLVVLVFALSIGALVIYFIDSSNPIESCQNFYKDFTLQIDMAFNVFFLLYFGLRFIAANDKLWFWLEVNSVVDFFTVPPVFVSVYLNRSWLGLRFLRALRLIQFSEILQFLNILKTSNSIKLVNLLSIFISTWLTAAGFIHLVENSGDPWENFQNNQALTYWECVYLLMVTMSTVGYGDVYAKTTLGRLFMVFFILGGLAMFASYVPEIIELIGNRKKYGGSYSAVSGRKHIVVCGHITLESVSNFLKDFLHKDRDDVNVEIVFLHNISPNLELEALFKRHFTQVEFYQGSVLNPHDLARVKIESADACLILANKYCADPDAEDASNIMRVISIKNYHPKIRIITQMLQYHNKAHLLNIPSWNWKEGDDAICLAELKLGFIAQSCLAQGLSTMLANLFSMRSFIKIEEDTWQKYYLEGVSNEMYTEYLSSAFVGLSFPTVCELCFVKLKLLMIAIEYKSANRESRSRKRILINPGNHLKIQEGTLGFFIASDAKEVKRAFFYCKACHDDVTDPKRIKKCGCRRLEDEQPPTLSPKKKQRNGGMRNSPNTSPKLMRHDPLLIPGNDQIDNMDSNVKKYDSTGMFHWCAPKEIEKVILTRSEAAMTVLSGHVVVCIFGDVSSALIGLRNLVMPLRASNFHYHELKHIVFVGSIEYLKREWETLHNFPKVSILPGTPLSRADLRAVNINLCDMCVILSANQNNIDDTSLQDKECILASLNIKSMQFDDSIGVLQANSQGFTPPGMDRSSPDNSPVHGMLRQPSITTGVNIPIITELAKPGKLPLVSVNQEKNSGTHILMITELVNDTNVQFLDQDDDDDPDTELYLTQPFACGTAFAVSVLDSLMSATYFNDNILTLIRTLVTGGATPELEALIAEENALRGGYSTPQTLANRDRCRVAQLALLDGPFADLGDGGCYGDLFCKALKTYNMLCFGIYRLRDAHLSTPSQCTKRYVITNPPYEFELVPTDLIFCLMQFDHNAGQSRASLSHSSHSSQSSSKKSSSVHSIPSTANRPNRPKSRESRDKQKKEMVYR

“iberiotoxin (from UniProt P24663 1-37) (peptide)” was tested, and the outward current in response to applied voltage, single whole-cell patch clamp of isolated rat detrusor cells, 300 nM IBTX was over 50%.
